Data published in patent publication US12503511 (COMPASS THERAPEUTICS, dated 2025).
Where a chain is given by its changes, count along the chain named.

T1: murine PD-1 expressed on cells (murine, UniProt Q02242 25-288)
T1 construct: whole, on cells; also called muPD-1; mouse PD-1
T1 sequence (looked up): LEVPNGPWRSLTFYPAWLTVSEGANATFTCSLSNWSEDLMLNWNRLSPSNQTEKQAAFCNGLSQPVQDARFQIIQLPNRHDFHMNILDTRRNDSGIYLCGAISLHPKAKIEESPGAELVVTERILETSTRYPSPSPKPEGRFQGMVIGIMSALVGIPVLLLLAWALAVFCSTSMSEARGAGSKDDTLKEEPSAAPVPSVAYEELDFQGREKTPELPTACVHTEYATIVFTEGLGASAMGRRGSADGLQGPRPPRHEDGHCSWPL

B1: mAb10 (antibody, V domains shown)
VH: QVQLVQSGAEVKKPGSSVKVSCKASGGTFSSYAINWVRQAPGQGLEWMGGIIPVFGTATYAQKFQGRVTITADESTSTAYMELSSLRSEDTAVYYCARLKNELKDAFDIWGQGTLVTVSS
VL: not shown
B2: mAb3 (antibody, V domains shown)
VH: B1 VH with N101G, L115M
VL: not shown
B3: mAb9 (antibody, V domains shown)
VH: B1 VH with N101G, I109E
VL: not shown
B4: mAb22 (antibody, V domains shown)
VH: B1 VH with N101G, L115M
VL: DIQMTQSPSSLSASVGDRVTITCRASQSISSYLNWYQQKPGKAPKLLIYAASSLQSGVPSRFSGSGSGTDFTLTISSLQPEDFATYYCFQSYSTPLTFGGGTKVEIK
B5: mAb18 (antibody, V domains shown)
VH: B1 VH with V54I, F55L, L99R, N101G
VL: not shown
B6: mAb6 (antibody, V domains shown)
VH: B1 VH with V54I, T57I, T59N, N101G
VL: not shown
B7: mAb5 (antibody, V domains shown)
VH: B1 VH with I34F, N35S, N101G
VL: not shown
B8: mAb1 (antibody, V domains shown)
VH: B1 VH with V54I, F55L, T57A, N101G
VL: not shown
notes: also called parental clone mAb1; anti-PD-L1 antibody mAb1
B9: mAb20 (antibody, V domains shown)
VH: B1 VH with V54I, T57K, L99R, N101G
VL: not shown
B10: mAb2 (antibody, V domains shown)
VH: B1 VH with N101G, L115M
VL: not shown
B11: mAb28 (antibody, V domains shown)
VH: EVQLLESGGGLVQPGGSLRLSCAASGFTFSSYAMLWVRQAPGKGLEWVSAISNSGTYTYYADSVKGRFTISRDNSKNTLYLQMNSLRAEDTAVYYCARGLDFIVGYTGNDYWGQGTLVTVSS
VL: not shown
notes: also called parental clone mAb28; anti-PD-1 IgG1 antibody (mAb28)
B12: mAb33 (antibody, V domains shown)
VH: B11 VH with S30N, L35S
VL: not shown
B13: mAb37 (antibody, V domains shown)
VH: B11 VH with S30R, L35S, Y106R
VL: not shown
B14: mAb34 (antibody, V domains shown)
VH: B11 VH with S31N, L35S, Y106A
VL: not shown
B15: mAb8 (antibody, V domains shown)
VH: B1 VH with N101F
VL: not shown

What follows are binders tested against T2, human PD-L1 expressed on cells (human, UniProt Q9NZQ7 19-290) (assay: cell binding titration, HEK cells expressing human PD-L1).
T2 construct: also called huPDL1; human PD-L1 on HEK cells
T2 sequence (Q9NZQ7 19-290 limits assumed): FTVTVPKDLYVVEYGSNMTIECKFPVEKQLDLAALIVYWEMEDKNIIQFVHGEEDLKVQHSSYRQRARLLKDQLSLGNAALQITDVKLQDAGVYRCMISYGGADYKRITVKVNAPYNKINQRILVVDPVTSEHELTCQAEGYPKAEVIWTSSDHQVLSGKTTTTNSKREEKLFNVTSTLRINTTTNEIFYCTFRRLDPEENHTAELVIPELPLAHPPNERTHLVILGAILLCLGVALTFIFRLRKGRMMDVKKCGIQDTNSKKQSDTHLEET

EC50 [nM]	Binder
0.04	B1
0.11	B2
0.06	B3
0.18	B4
0.38	B5
0.13	B6
0.09	B7
0.04	B8
0.13	B9
0.06	B10

These binders were tested against T3, purified recombinant His tagged human PD-1 (human, UniProt Q15116 25-170) (assay: SPR (Carterra MX96), antibody on chip, His-tagged human PD-1 injected).
T3 construct: not shown: His tag
T3 sequence (Q15116 25-170 limits assumed): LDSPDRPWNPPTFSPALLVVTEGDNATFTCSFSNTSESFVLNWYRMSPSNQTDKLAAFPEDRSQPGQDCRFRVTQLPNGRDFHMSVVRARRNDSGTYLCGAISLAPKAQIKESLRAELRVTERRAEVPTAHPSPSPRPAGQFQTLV

Kd [nM]	Binder
5.6	B11
7	B12
14	B13
7.2	B14

These binders were tested against T4, murine PD-L1 expressed on cells (murine, UniProt Q9EP73 19-290) (assay: cell binding titration, A20 cells expressing murine PD-L1).
T4 construct: whole, on cells; also called muPDL1; mouse PD-L1
T4 sequence (Q9EP73 19-290): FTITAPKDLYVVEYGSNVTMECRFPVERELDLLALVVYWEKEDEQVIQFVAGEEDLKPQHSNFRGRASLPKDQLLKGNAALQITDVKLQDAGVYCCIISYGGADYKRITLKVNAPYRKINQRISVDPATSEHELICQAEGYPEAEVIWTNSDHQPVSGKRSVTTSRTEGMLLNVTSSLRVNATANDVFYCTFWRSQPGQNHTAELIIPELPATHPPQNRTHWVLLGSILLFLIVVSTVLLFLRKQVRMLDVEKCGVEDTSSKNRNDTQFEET

binding result	EC50 [nM]	Binder
no binding	–	B15
no binding	–	B1
–	1.27	B2
no binding	–	B3
no binding	–	B4
–	0.84	B5
no binding	–	B6
no binding	–	B7
–	0.74	B8
–	2.66	B9
–	2	B10

The binders below were run against T1, murine PD-1 expressed on cells (assay: cell binding titration, CHO cells expressing murine PD-1).

EC50 [nM]	Binder
0.814	B11
10.4	B12
0.942	B13
20.5	B14

Each binder was assayed against T5, cyno PD-1 expressed on cells (cynomolgus) (assay: cell binding titration (MFI) on CHO cells expressing cynomolgus PD-1, panel titled 'Cell Binding: CHO/CyPD-1').
T5 construct: whole, on cells; also called cyPD-1; cynomolgus PD-1

EC50 (read off the curve) [nM]	Binder
~0.4	B11

These binders were tested against T1, murine PD-1 expressed on cells (assay: cell binding titration (MFI) on CHO cells expressing mouse PD-1, panel titled 'Cell Binding: CHO/MsPD-1').

EC50 (read off the curve) [nM]	Binder
~0.3	B11

What follows are binders tested against T5, cyno PD-1 expressed on cells (assay: cell binding EC50 on CHO-cyno PD-1; fold improvement over parent mAb25).

Fold improvement over Parent [fold]	Binder
5.8	B11
6.5	B12
7.9	B13
6.5	B14

The binders below were run against T6, human PD-1 expressed on cells (human, UniProt Q15116 25-288) (assay: cell binding titration, CHO cells expressing human PD-1).
T6 construct: also called huPD-1; CHO cells expressing human PD-1
T6 sequence (Q15116 25-288 limits assumed): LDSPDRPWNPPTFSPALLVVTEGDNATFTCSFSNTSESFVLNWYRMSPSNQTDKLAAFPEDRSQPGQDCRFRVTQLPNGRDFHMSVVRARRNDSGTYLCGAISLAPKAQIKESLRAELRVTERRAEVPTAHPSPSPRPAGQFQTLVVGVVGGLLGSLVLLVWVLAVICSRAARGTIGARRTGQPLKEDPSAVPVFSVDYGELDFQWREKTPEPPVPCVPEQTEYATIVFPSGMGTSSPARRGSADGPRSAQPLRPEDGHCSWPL

EC50 [nM]	Binder
3.94	B11
1.04	B12
0.75	B13
3.87	B14

What follows are binders tested against T7, purified recombinant His tagged human PD-L1 (human, UniProt Q9NZQ7 19-238) (assay: SPR (Carterra MX96), antibody on chip, His-tagged human PD-L1 injected).
T7 construct: not shown: His tag
T7 sequence (Q9NZQ7 19-238 limits assumed): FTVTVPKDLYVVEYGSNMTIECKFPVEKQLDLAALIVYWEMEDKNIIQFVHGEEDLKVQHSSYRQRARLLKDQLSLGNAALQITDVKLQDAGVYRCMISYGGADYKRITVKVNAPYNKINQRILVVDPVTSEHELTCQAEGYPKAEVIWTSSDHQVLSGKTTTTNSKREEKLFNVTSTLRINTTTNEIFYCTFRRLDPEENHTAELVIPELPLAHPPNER

Kd [nM]	Binder
3.7	B15
6.3	B1
0.9	B2
5.4	B3
2.5	B4
527	B5
35.9	B6
27.1	B7
4.16	B8
53.9	B9
2.2	B10

What follows are binders tested against T6, human PD-1 expressed on cells (assay: cell binding EC50 on CHO-human PD-1; fold improvement over parent mAb25).

Fold improvement over Parent [fold]	Binder
0.2	B11
0.9	B12
1.2	B13
0.2	B14

These binders were tested against T8, cyno PD-L1 expressed on cells (cynomolgus) (assay: cell binding titration (MFI); binder and target taken from the legend paragraph 94 and paragraph 377 (parental clone mAb1, CHO cells expressing cynomolgus PD-L1); the panel itself prints 'mAb28' and 'CHO/CyPD-1').
T8 construct: whole, on cells; also called cynomolgus PD-L1

EC50 (read off the curve) [nM]	Binder
~0.04	B8

The binders below were run against T8, cyno PD-L1 expressed on cells (assay: cell binding EC50 on HEK-cyno PD-L1; fold improvement, reference taken as parent mAb24).

Fold Improvement [fold]	Binder
3.42	B15
3.05	B1
4.15	B3
0.89	B4
4.96	B5
0.61	B6
0.74	B7
3.21	B8
2.31	B9
3.76	B10

Each binder was assayed against T4, murine PD-L1 expressed on cells (assay: cell binding EC50 on A20-murine PD-L1; fold improvement, reference taken as parent mAb24).

Fold Improvement [fold]	Binder
3.08	B2
4.67	B5
5.26	B8
1.47	B9
1.96	B10

What follows are binders tested against T5, cyno PD-1 expressed on cells (assay: cell binding titration, CHO cells expressing cyno PD-1).

EC50 [nM]	Binder
1.48	B11
1.33	B12
1.09	B13
1.33	B14

Each binder was assayed against T7, purified recombinant His tagged human … (assay: SPR KD; fold improvement, reference taken as parent mAb24).

Fold Improvement [fold]	Binder
1.2	B15
0.7	B1
4.8	B2
0.8	B3
1.8	B4
0.1	B6
0.2	B7
1.1	B8
0.1	B9
2	B10

What follows are binders tested against T3, purified recombinant His tagged human … (assay: SPR KD; fold improvement over parent mAb25).

Fold improvement over Parent [fold]	Binder
43	B11
34	B12
17	B13
33	B14

The binders below were run against T6, human PD-1 expressed on cells (assay: cell binding titration (MFI) on CHO cells expressing human PD-1, panel titled 'Cell Binding: CHO/HuPD-1').

EC50 (read off the curve) [nM]	Binder
~0.6	B11

The binders below were run against T2, human PD-L1 expressed on cells (assay: cell binding titration (MFI); binder and target taken from the legend paragraph 94 and paragraph 377 (parental clone mAb1, CHO cells expressing human PD-L1); the panel itself prints 'mAb28' and 'CHO/HuPD-1').

EC50 (read off the curve) [nM]	Binder
~0.1	B8

What follows are binders tested against T2, human PD-L1 expressed on cells (assay: cell binding EC50 on HEK-human PD-L1; fold improvement, reference taken as parent mAb24).

Fold Improvement [fold]	Binder
3.2	B1
1.3	B2
2.5	B3
0.8	B4
0.4	B5
1.1	B6
1.5	B7
3.3	B8
1	B9
2.2	B10

Each binder was assayed against T8, cyno PD-L1 expressed on cells (assay: cell binding titration, HEK cells expressing cyno PD-L1).

EC50 [nM]	Binder
0.08	B15
0.09	B1
0.07	B3
0.32	B4
0.06	B5
0.47	B6
0.39	B7
0.09	B8
0.12	B9
0.08	B10
